Reference: US20100166708

Assays:
[1] = tryptophan fluorescence, urea dissociation of peptide complexes, 5 µM peptide
[2] = tryptophan fluorescence, urea dissociation of peptide complexes, 25 µM peptide

With delta-haemolysin the “midpoint of the unfolding curve” value [1] was “The midpoints of the unfolding curves of 5 µM and 25 µM were 2.14 and 3.20M urea” and the “midpoint of the unfolding curve” value [2] was “The midpoints of the unfolding curves of 5 µM and 25 µM were 2.14 and 3.20M urea”.
